Measurements: the DeepSol protein solubility set

Test: soluble on expression in E. coli; label from the status in PepcDB or PDB records
With “MTNSVLRVLEHLRAHDHDAIVLAPGDADTPHEYAGFPVIPLASLHWPGYQDVRVSTSPQWTMERYLSEFEPDVVHLAGPFMIGYKGAMAAASLGIPIVAIYQTDIPSYAGRYGLGKLEFYGWYRVRQIHSLAVATYAPSTFSRDQLVSHGVPRVDIWGRGVDKVRFHPSKRSQQLHDEWAPNGEVVIGYMGRLAAEKRVADMTNLADIPNTKLVIVGDGPARAEVEKQLPHAVFTGGLGGEDLPRALASMDVFCSTGELETFCQAVQEAKACGLPVISPRKGGPIDLIDSSRTGWLYEPGDMTDFRSRVIDLVGDDYKRHAMGIAARASIENRTWENLCAELVEHYKEAIRLAGRSTRIRAVLLEHHHHHH” the “soluble on expression in E. coli” value was “not soluble”.
For “MKTGKELKPGTVIRLENDPWLVQKAEFTKSGRNSAIMKTKLKNLLTGYKTEIVYSADDKLDDVILDRKEATLSFISGDTYTFMDTTDYTMYELNAEDIESVLPFVEEGMTDVCEAVFFDERLVSVELPTTIVRQVDYTEGSARGDTSGKVMKPAKLKNGTELSVADFIEIGDMIEIDTREGGSYKGRAKLEHHHHHH”, the “soluble on expression in E. coli” value was “not soluble”.
With “MSDEKKSTDIDLKNLKAGGFIKERGKDLFTVRLRVPGGRMPVARLKKIAEVAEKYGQGMVHLSVRQSVELININFRDFDAVVAELGEGTQKVASCGARVRVPTACGGCEYNPNGLVDTQKSALEVDEKLFGTSTGHHKFKVGFAGCPFDCPKSATNDVGFQGAIWPVLYADECIGCGLCDKSCTEDAIVMGDDGKPRFIPENCLYCGDCLKVCPSEAWRAEKKGYTVRIGGKWGRRPLVGTLFAEFLPEEQVFDFIAAVLDWYKEKAEGQGRIRLGDVIRAEGPDALLGYLRERFPAAVVDATIPPQRIATQIGKEKRVPLEHHHHHH” the “soluble on expression in E. coli” value was “soluble”.
For “MEEKKTESATKNVKKVNLLDHIAIKHLLDESVSDIVTSRGYKEDGSFTSTGLVVSSKLPRFSDQYTLTIDSADPQSISAGKSVQFTKSVTQWLTKDGVLVEGLFWKDVEALVKEYTEAGEPKKKR”, the “soluble on expression in E. coli” value was “not soluble”.
For “MNLKDPICAIATPPGKGAIGVVRLSGEGALEIAARVWRGKDPRRLKGGRFALGEVVDPKTGEAIDQAILLVFRAPRSYTGEDLVEFQTHGSPAVLRRVMEVLVAEGARPAGRGEFTFRAYLNGKMDLAQAEAVLALIEAEGELARRQALRALEGALSRRIEALENRLLNLLAHIQALLDYPEEGVEPLEAERTIREVLAEVEALLAQAKASRLAQKGARLALIGAPNAGKSSLLNALLGYERALVSPIPGTTRDYLEAPLELFGIPLVAVDTAGVRETEDPVERMGVERALGIAEEADLVLYVVDRSQPKPAPPPLPWARTLKVATKSDLPPAWEDPEFLPVSSLTGEGLDRLKEAVREALLGREGGEVLLTERQVEALLRARERLEEALSLPEDLMGLALEEAARALALLTGKEVAEEVVARVFQNFCVGK”, the “soluble on expression in E. coli” value was “soluble”.
For “MTNRLILFDFDETYYKHRTNQADIPYLKEMKSLLQNITAKNNVITAILTGSTIESVLQKMSKVNMSYKPQHIFSDLSSKMFTWNNCEYIESDEYKNEVLIEPFLLEDILDILKHVSSKHKVEFIPQRIFRENETLYNFYFYSSGDTHLDKTILEDLSQYSKTRDYTMTFNRCNPLAGDPENAYDINFTPKNAGKLYATKILMNKYGVPKELIIGFGDSGNDEAFLSYLDHAMIMSNSQDEEMKSKFKNTKYPYYKGIYTHVREFIEYENV”, the “soluble on expression in E. coli” value was “not soluble”.
For “MSELQNPKPSSLSRDAFIATYADIYEHSPWVAEQAFNQDAGPELDQLDTLHARLSDILLNATHAQQLALINAHPDLAGKAAVKGELTQASTDEQAGAGIHLCTPDEFQRFTELNGAYKARFGFPFIMAVKGSDRHKILAAFEQRIHHSPEAEFACALAEINKIALFRLQALHASQAAAALEHHHHHH”, the “soluble on expression in E. coli” value was “soluble”.
For “MYRIIEAPNSGKYPFSHSLLIGKSCIIDTGSGEALAPLRVDCVLNTHWHEDHIAMNSIGRKVLAHPLDAEAIESYEEFRRRYGIGDSVRLFINFEFGQVDDVFEDGEQLEFEGVSVEVIHTPGHSAGHCCFVINNEAVFLGDIDLTSFGPWYGCLDCDVDDFVRSVKKMMREVERRDIEIAIPSHGRPVYGKEEIIGAMREYLKKIFERDKAIRELVRLGVDPVGKGIIYRKIPEPREIYLHFEKIMVEKHLTTSLDEFCLDLEHHHHHH”, the “soluble on expression in E. coli” value was “not soluble”.
With “LYLAGIGQYAALLEAGFARARSAEETVRLLVTSYIDWVVANPDWARFILHSRGRVEAGELGERLRADNQAHFARIHAALAGYRAEGLFREMPDDCFASVVIGPAHDLARQWLAGRTRVALADCRELLAQVAWDSVRAA” the “soluble on expression in E. coli” value was “soluble”.
For “MTNMRQVLKTDRLVLEPQSMARFDQWFAMERQRDEAGHRDLTEDQAWLRLCARQGMWDAYACGFYYLLDPVSGEMRGEAGFQFRRRGFGPGFDNHPEAAWAVASAHQGRGLAAEAMQALLAHHDRSSGRQRVVALIARSNLPSLRLAERLGFRGYSDVAFDGAAHLLLERAG”, the “soluble on expression in E. coli” value was “soluble”.
In the case of “MGSDKIHHHHHHMSNRIDHAKAAGAFISKTEHVAFHDRRLWDLREKRDAQAHGIAEWETMRELASGIKEHTLSNLSTYLEQFAAAAEANGVTVHWAATAEEHNALVHQLMSERGMTTLVKSKSMLTDECKMREYLEPRGITVMETDLGERIQQLDHQDPSHMVVPAVHKLRADVAELFGRTIGTDPKNSDIHYLAESQRMNTRPYFVREKTAGMTGCNFAVAETGTVVVCTNEGNADLSANVPPLHIASIGIEKLIPKVSDLGVFIRMLSRSALGSPITQYTSHFRAPRKGTEMHFILVDHGRSERLAMEDFWYSLKCIRCGACMNTCPVYRRSGGLSYGGTYSGPIGAIINPTFDLKRYSALPFASTLNGSCTNVCPVKINIHEQIYKWRTVIAGHHEVPFVKQEVLKMAGRLLASPTLYRATVSSMGSALRRLPNFVLYNPLNIWGKQRELPEAPKLTFHAWYKKNRGADHDNA”, the “soluble on expression in E. coli” value is reported as “not soluble”.
For “MDDSTLRDRLEQLGLSEKEVDTYLSILSSGEATASEIADDTGVSKRYVYSISESLEDRGFVEVNDHVVPTTIRARPPEEVIDALTDRLEEMSGALDSRYSASAREPQQFDVIKSRVTVIKRLTEYIRNAEREIMLSVPQQYLPEISEELGAAVDRGVLVMLVVSSADNLRSDDASGLASVVRSWDQPMPIMLTVDAQFGLVSPAEMVTRTNSDQRAIAFVQQQLVPVLSGSFLGNYWLMATEVAVTDPAPLPATYHDFRHAVLQATLHLRADHDIHVSADVRAVQADDDTTTIEGTVVETKQGLVEPETNSYPIEHTLVVDIGDRTVSLGGSGSFLEDYETDAVTLSLAE”, the “soluble on expression in E. coli” value was “not soluble”.
With “MEYQFTHSIHGIVAKCSMEHEVFARWLNTEIIGHTQNLHNILAEIEKCRAAFPNHYECVFEGQEYSLYFDCDEVIVKVNNLAMAIDEVIVEEGLQLYDQESVAFCGLEDFERFLQAYHKFSSTYH” the “soluble on expression in E. coli” value was “not soluble”.
For “MERLQKVIARAGIASRRKAEELILQGRVKVNGRVVKELGVKVGPRDDVEVDGIPIEREEPVYYLLYKPRGVISSVKDDRGRKVVTDFFKDLDKRIYPIGRLDYDTSGLLLLTNDGDFANLLMHPRYEIEKVYIAKVKGIPTHEQLKRLEQGVQLEDGMTAPAKVKLLSADRKKGTAIVEIRIHEGRNRQVRRMFEAIGCEVLKLKRERYAFLDLKGLRPGEYRELTPHEVKLLRVLAQSGGRK”, the “soluble on expression in E. coli” value was “soluble”.
With “GFSSEVLKKAYDDTEDIEDQLQQAEGRLFEISQHNMKQDVQPIDPIIKEALGEIQIAANRKEGLSGQPSGFPAIDKLTAGWQASDLIIIAARPAMGKTAFVLSMAKNMAIDYNIPVAIFNLEMSSVQLVKRLMSNVCEIPGEKLKTGRLESHEWVQLDTKLKDFENKPLYIDDTPSLSVFELRTKSRRLVREYGVKVIIIDYLQLMNASGMSFGNREQEVSTISRSLKVLAKELKIPIIALSQLNRSVETRQGDINSKRPQLSDLRESGAIEQDADMVCFIHRPEYYKITEDQQGNSLLGIGEFIIAKHRNGPVDDVRLRFRSEFAKFLPLEAESMVKRHSRIGGSPVEMGVGNGSFAPPLPPPEDNPLLSGPYSSGTSEADFLAEASGIDNPF” the “soluble on expression in E. coli” value was “not soluble”.
For “MSLEKHRMLVIDDDPIAHQIMQMLFEAELRLTCKVTGEEGLSAVEEEQPEIVLLDIEMEGMDGYEACRRIRQLNLPSQPYIIFVSAHSDPVKRLAAYSVGGEDFVSKPLQPQELTRKVEQALRYRREGHHHHHH”, the “soluble on expression in E. coli” value was “not soluble”.
For “MGSDKIHHHHHHMINQLMRSVDNLPAFPVTVIKVMDLLSRDDYSIAEVARVISFDQSITANILKVSNSAYFSFGRPIRTVLEAVARLGKENVIRAVQTAGISKFYKTTARGYVSVAADLWEHSVAVALMSQILSRRIYGREDSVLYSAALLHDVGKIIIGAYVYESLEKIQRVVDGRKCSFIEAEEEVIGINHAELGGKITGYWNLPEEICDAIAFHHRPDILDKNSVDMQWIVYLADQLCMMTGIGNGIDGLAYLGISEVLKKFNLREKDLETNMMNLMDDLRNARSILDMV”, the “soluble on expression in E. coli” value was “not soluble”.
In the case of “MAILLNRPTLSRLPWFPLRPEDFTTLLQTADFRLRLLEAIAAATRRVYICALYLENEEAGQEMLDALYRAKQRNPQLDVRVMVDWHRAQRGRIGEDQSHCNASWYREEAARRELDIPIYGVPVQTRELFGVLHLKGFVIDDTVFYSGASLNNVYLHKLDKYRFDRYHLIRSPELADAMAGFMAEQFFNDPAVFRLDKPTPSTRSIRKEIRQLRDKLSHSQYRPGSAHAAPDELAISPIVGIGKGNRLNRAILDVIAGAQRRLFICTPYFNFPRAVVLEINRALRRGVEIDIVVGDKTANDFYIPPEQPFRVIGALPYLYEMNLRRFAKRQRQYLSREQLRVRLWKDGDNTYHLKGIWSDDRFILLTGNNLNPRAFRLDLENALLLRDPQGALRGQSAAEQQSILRHTTQLSHYRQLEDVRAYPEQIKKLLTRLSRVRIDRMLNLMLLEHHHHHH”, the “soluble on expression in E. coli” value is reported as “soluble”.
For “MGSDKIHHHHHHANTQTNIQLERTSSDIEHALYYASFAANSHNTQSWKVNLDPKQKRLGVFLNNKRSLNVVDPNNRELYISIGCYIQSLKKSFEAYGYNVSISNIAPSKENKYQVVLINYQKLKNNKINNKQLDIIQKRHTDKRKFQKKPINRTVVSSLIKKYNNVYYYAKGSKTFKYLQKGSLAAAAKQYKNQDFLKEQGKWLRFSNQEVEKKQDGISGDMLGLNPIIKTLYYLTSNHKNATSNNFVKQSKNTLINQVENCAGFFVITGEQNISKWIAVGEKSQAFWYDCVRNNIAVQPISAMIEIPSYNQKLQQNLGKSQPVQLILRVGYVNSYGKNVGPRRNLKDYITVKK”, the “soluble on expression in E. coli” value was “not soluble”.
With “MVTEFAKEMIKNADSCGAQDIYVIPRQDNYELYMRVGQERRLIDVYRPDFMASLIGHFKFVAGMMVGEKRRSQLGSCDYDCGDGHLVSLRLSTVGDYRGLESLVIRILH” the “soluble on expression in E. coli” value was “not soluble”.
For “MAHHHHHHMHLQIVCLTDEVREMYKHHKTHHEGDSGLDLFIIKDEILKPKSTTFVKLGIKAIALQYKSSYYHKSEANANANANANGKDAPVGMGGVNAKESCAPHQKNPEIVNTSYLLFPRSSISKTPLRLANSIGLIDAGYRGELIAALDNTSEEEYLIKKNDKLVQLVSFTGEPLSFELVDELDETSRGEGGFGSTSNK”, the “soluble on expression in E. coli” value was “soluble”.
With “MSLSTADALDDENTFKILVATDIHLGFMEKDAVRGNDTFVTLDEILRLAQENEVDFILLGGDLFHENKPSRKTLHTCLELLRKYCMGDRPVQFEILSDQSVNFGFSKFPWVNYQDGNLNISIPVFSIHGNHDDPTGADALCALDILSCAGFVNHFGRSMSVEKIDISPVLLQKGSTKIALYGLGSIPDERLYRMFVNKKVTMLRPKEDENSWFNLFVIHQNRSKHGSTNFIPEQFLDDFIDLVIWGHEHECKIAPTKNEQQLFYISQPGSSVVTSLSPGEAVKKHVGLLRIKGRKMNMHKIPLHTVRQFFMEDIVLANHPDIFNPDNPKVTQAIQSFCLEKIEEMLENAERERLGNSHQPEKPLVRLRVDYSGGFEPFSVLRFSQKFVDRVANPKDIIHFFRHREQKEKTGEEINFGKLITKPSEGTTLRVEDLVKQYFQTAEKNVQLSLLTERGMGEAVQEFVDKEEKDAIEELVKYQLEKTQRFLKERHIDALEDKIDEEVRRFRETRQKNTNEEDDEVREAMTRARALREGHHHHHH” the “soluble on expression in E. coli” value was “not soluble”.
